Reference: publication PMC3474739, “Novel Frataxin Isoforms May Contribute to the Pathological Mechanism of Friedreich Ataxia” (PLoS ONE, 2012)

B1: frataxin isoform II (natural protein, human, UniProt Q16595 76-210, looked up)
chain: MNLRKSGTLGHPGSLDETTYERLAEETLDSLAEFFEDLADKPYTFEDYDVSFGSGVLTVKLGGDLGTYVINKQTPNKQIWLSSPSSGPKRYDWTGKNWVYSHDGVSLHELLAAELTKALKTKLDLSSLAYSGKDA
notes: human frataxin isoform II, 135 amino acids, 14.9 kDa, begins at the second AUG (methionine, 76th aa of the FXN precursor) and runs to the stop codon; Cloned into pET24a(+) with NdeI and XhoI sites; also called FXN II; FXN isoform II; source: E. coli BL21(DE3), purified
B2: human ISCU, mitochondrial mature form (natural protein, UniProt Q9H1K1 35-167, looked up)
chain: YHKKVVDHYENPRNVGSLDKTSKNVGTGLVGAPACGDVMKLQIQVDEKGKIVDARFKTFGCGSAIASSSLATEWVKGKTVEEALTIKNTDIAKELCLPPVKLHCSMLAEDAIKAALADYKLKQEPKKGEAEKK
notes: human ISCU, mitochondrial mature form; source: E. coli BL21(DE3), purified
B3: frataxin isoform I, mature form (natural protein, human, UniProt Q16595 81-210, looked up)
chain: SGTLGHPGSLDETTYERLAEETLDSLAEFFEDLADKPYTFEDYDVSFGSGVLTVKLGGDLGTYVINKQTPNKQIWLSSPSSGPKRYDWTGKNWVYSHDGVSLHELLAAELTKALKTKLDLSSLAYSGKDA
notes: Cloned into pET24a(+) with NdeI and XhoI sites; also called FXN I; FXN isoform I; source: E. coli BL21(DE3), purified

How the values were obtained:
Assay in all cases: SEC; purified ISCS/ISD11, ISCU and FXN isoform mixed at a molar ratio of 1:1:1, 1 h anaerobically at room temperature, then Superdex200 in 50 mM Tris, 200 mM NaCl, 5 µM PLP, pH 8.0; fractions analysed by SDS-PAGE
Details in all cases: both partners purified
[1] = biological target: T1, ISCS/ISD11 (human, UniProt Q9Y697 56-457; Q9HD34 1-91)
T1 construct: human mitochondrial ISCS (NFS1) that misses the first 55 amino acids of the precursor (NFS1Δ1-55); human ISD11; Both chains in pACYCDuet-1; also called NFS1Δ1-55 with ISD11; source: E. coli, co-expressed (plasmid pZM90b), purified; also co-expressed with His-ISCU in E. coli BL21(DE3) or CL100(DE3), in lysate

[2] = biological target: B1
[3] = biological target: B2

T1 sequence (Q9Y697 56-457, chain 1 of 2): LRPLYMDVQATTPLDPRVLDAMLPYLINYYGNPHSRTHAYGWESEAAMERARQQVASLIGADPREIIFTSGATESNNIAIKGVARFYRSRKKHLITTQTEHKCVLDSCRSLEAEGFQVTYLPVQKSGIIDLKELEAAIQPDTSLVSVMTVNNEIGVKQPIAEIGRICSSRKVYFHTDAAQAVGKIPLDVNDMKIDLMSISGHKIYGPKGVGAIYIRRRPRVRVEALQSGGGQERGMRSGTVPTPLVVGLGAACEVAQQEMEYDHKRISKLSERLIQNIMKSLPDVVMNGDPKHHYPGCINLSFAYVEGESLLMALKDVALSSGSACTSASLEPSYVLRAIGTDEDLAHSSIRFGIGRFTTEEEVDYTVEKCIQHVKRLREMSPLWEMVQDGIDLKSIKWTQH
T1 sequence (Q9HD34 whole entry, chain 2 of 2): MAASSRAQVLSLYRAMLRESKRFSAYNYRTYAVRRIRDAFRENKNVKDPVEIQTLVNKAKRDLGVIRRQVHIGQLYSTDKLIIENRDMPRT

| Binder | binding result [1] | binding result [2] | binding result [3] |
| --- | --- | --- | --- |
| B1 | binds |  |  |
| B2 | binds | binds |  |
| B3 | binds |  | binds |
